Results: the Human Domainome abundance scans (Beltran et al. 2025)
± gives the uncertainty stated by the source.

Assay: abundance fitness (aPCA) (normalised: wild type 0, dead -1); higher = more abundant; growth selection in yeast, the domain comes from the species named
Details: Homo sapiens

| Substance | abundance fitness |
| --- | --- |
| DnaJ homolog subfamily B member 1 L11Y, P25685 | -1.1 ± 0.13 |
| DnaJ homolog subfamily B member 1 R61Y, P25685 | -0.606 ± 0.13 |
| DnaJ homolog subfamily B member 1 R30K, P25685 | -0.086 ± 0.098 |
| DnaJ homolog subfamily B member 1 I48K, P25685 | -0.329 ± 0.2 |
| DnaJ homolog subfamily B member 1 K21S, P25685 | -0.097 ± 0.051 |
| DnaJ homolog subfamily B member 1 A41Q, P25685 | -0.134 ± 0.077 |
| DnaJ homolog subfamily B member 1 D34F, P25685 | -0.249 ± 0.1 |
| DnaJ homolog subfamily B member 1 N36M, P25685 | 0.035 ± 0.13 |
| DnaJ homolog subfamily B member 1 Y5K, P25685 | -0.493 ± 0.15 |
| DnaJ homolog subfamily B member 1 Y52M, P25685 | -0.049 ± 0.091 |
| DnaJ homolog subfamily B member 1 Q27H, P25685 | -0.168 ± 0.18 |
| DnaJ homolog subfamily B member 1 D53L, P25685 | -0.058 ± 0.066 |
| DnaJ homolog subfamily B member 1 G14R, P25685 | -0.274 ± 0.056 |
| DnaJ homolog subfamily B member 1 V54S, P25685 | -0.15 ± 0.076 |
| DnaJ homolog subfamily B member 1 L11K, P25685 | -0.849 ± 0.19 |
| DnaJ homolog subfamily B member 1 E62W, P25685 | -0.626 ± 0.096 |
| DnaJ homolog subfamily B member 1 Y24V, P25685 | -0.547 ± 0.09 |
| DnaJ homolog subfamily B member 1 I48V, P25685 | -0.267 ± 0.089 |
| DnaJ homolog subfamily B member 1 L29R, P25685 | -0.06 ± 0.077 |
| DnaJ homolog subfamily B member 1 Y5I, P25685 | -0.416 ± 0.21 |
| DnaJ homolog subfamily B member 1 A28G, P25685 | -0.106 ± 0.086 |
| DnaJ homolog subfamily B member 1 R26G, P25685 | -0.117 ± 0.094 |
| DnaJ homolog subfamily B member 1 R59N, P25685 | -0.068 ± 0.14 |
| DnaJ homolog subfamily B member 1 S56Y, P25685 | -0.493 ± 0.11 |
| DnaJ homolog subfamily B member 1 D17F, P25685 | -0.183 ± 0.12 |
| DnaJ homolog subfamily B member 1 G10F, P25685 | -0.542 ± 0.13 |

| Substance | abundance fitness |
| --- | --- |
| DnaJ homolog subfamily B member 1 E43F, P25685 | -0.093 ± 0.19 |
| DnaJ homolog subfamily B member 1 E47S, P25685 | -0.099 ± 0.072 |
| DnaJ homolog subfamily B member 1 R30M, P25685 | 0.104 ± 0.089 |
| DnaJ homolog subfamily B member 1 E47V, P25685 | -0.295 ± 0.088 |
| DnaJ homolog subfamily B member 1 I63L, P25685 | -0.097 ± 0.082 |
| DnaJ homolog subfamily B member 1 A41G, P25685 | -0.104 ± 0.067 |
| DnaJ homolog subfamily B member 1 L55W, P25685 | -0.932 ± 0.1 |
| DnaJ homolog subfamily B member 1 Y5T, P25685 | -0.699 ± 0.24 |
| DnaJ homolog subfamily B member 1 I20S, P25685 | -0.782 ± 0.061 |
| DnaJ homolog subfamily B member 1 E18S, P25685 | -0.093 ± 0.074 |
| DnaJ homolog subfamily B member 1 Q7T, P25685 | -0.008 ± 0.078 |
| DnaJ homolog subfamily B member 1 V54A, P25685 | -0.201 ± 0.2 |
| DnaJ homolog subfamily B member 1 N36A, P25685 | 0.038 ± 0.084 |
| DnaJ homolog subfamily B member 1 K37P, P25685 | -0.306 ± 0.14 |
| DnaJ homolog subfamily B member 1 G14E, P25685 | -0.192 ± 0.078 |
| DnaJ homolog subfamily B member 1 Y6D, P25685 | -0.747 ± 0.16 |
| DnaJ homolog subfamily B member 1 A23M, P25685 | -0.328 ± 0.068 |
| DnaJ homolog subfamily B member 1 N36D, P25685 | -0.221 ± 0.12 |
| DnaJ homolog subfamily B member 1 Y31N, P25685 | -0.287 ± 0.14 |
| DnaJ homolog subfamily B member 1 L55V, P25685 | -0.347 ± 0.08 |
| DnaJ homolog subfamily B member 1 A12F, P25685 | -0.346 ± 0.092 |
| DnaJ homolog subfamily B member 1 R59M, P25685 | -0.256 ± 0.19 |
| DnaJ homolog subfamily B member 1 I63D, P25685 | -0.014 ± 0.21 |
| DnaJ homolog subfamily B member 1 N36P, P25685 | -0.096 ± 0.086 |
| DnaJ homolog subfamily B member 1 T8H, P25685 | 0.211 ± 0.46 |
| DnaJ homolog subfamily B member 1 D53H, P25685 | -0.262 ± 0.1 |

| Substance | abundance fitness |
| --- | --- |
| DnaJ homolog subfamily B member 1 G40V, P25685 | -0.133 ± 0.079 |
| DnaJ homolog subfamily B member 1 R25C, P25685 | -0.22 ± 0.14 |
| DnaJ homolog subfamily B member 1 E43Q, P25685 | 0.086 ± 0.1 |
| DnaJ homolog subfamily B member 1 I48H, P25685 | -0.561 ± 0.12 |
| DnaJ homolog subfamily B member 1 A12K, P25685 | -0.02 ± 0.077 |
| DnaJ homolog subfamily B member 1 A51W, P25685 | -1.08 ± 0.096 |
| DnaJ homolog subfamily B member 1 P58N, P25685 | -0.306 ± 0.2 |
| DnaJ homolog subfamily B member 1 A28K, P25685 | -0.149 ± 0.083 |
| DnaJ homolog subfamily B member 1 Y52P, P25685 | -0.466 ± 0.1 |
| DnaJ homolog subfamily B member 1 R13P, P25685 | -0.177 ± 0.088 |
| DnaJ homolog subfamily B member 1 E38R, P25685 | -0.172 ± 0.091 |
| DnaJ homolog subfamily B member 1 Y31L, P25685 | -0.16 ± 0.063 |
| DnaJ homolog subfamily B member 1 E42A, P25685 | 0.002 ± 0.077 |
| DnaJ homolog subfamily B member 1 N36K, P25685 | -0.112 ± 0.085 |
| DnaJ homolog subfamily B member 1 R30E, P25685 | 0.047 ± 0.24 |
| DnaJ homolog subfamily B member 1 D53I, P25685 | -0.224 ± 0.11 |
| DnaJ homolog subfamily B member 1 A49P, P25685 | -0.743 ± 0.074 |
| DnaJ homolog subfamily B member 1 A23T, P25685 | -0.339 ± 0.11 |
| DnaJ homolog subfamily B member 1 E47G, P25685 | -0.054 ± 0.076 |
| DnaJ homolog subfamily B member 1 R61D, P25685 | -0.668 ± 0.18 |
| DnaJ homolog subfamily B member 1 D65L, P25685 | -0.116 ± 0.085 |
| DnaJ homolog subfamily B member 1 Y24Q, P25685 | -0.547 ± 0.091 |
| DnaJ homolog subfamily B member 1 E38G, P25685 | -0.068 ± 0.098 |
| DnaJ homolog subfamily B member 1 E18K, P25685 | -0.205 ± 0.11 |
| DnaJ homolog subfamily B member 1 I48W, P25685 | -1 ± 0.11 |
| DnaJ homolog subfamily B member 1 F64Y, P25685 | 0.009 ± 0.48 |

| Substance | abundance fitness |
| --- | --- |
| DnaJ homolog subfamily B member 1 K44W, P25685 | -0.315 ± 0.11 |
| DnaJ homolog subfamily B member 1 H32E, P25685 | 0.035 ± 0.091 |
| DnaJ homolog subfamily B member 1 I48R, P25685 | -0.74 ± 0.075 |
| DnaJ homolog subfamily B member 1 K35Q, P25685 | -0.213 ± 0.092 |
| DnaJ homolog subfamily B member 1 G10D, P25685 | -0.141 ± 0.074 |
| DnaJ homolog subfamily B member 1 R26C, P25685 | 0.064 ± 0.11 |
| DnaJ homolog subfamily B member 1 Y31T, P25685 | -0.369 ± 0.12 |
| DnaJ homolog subfamily B member 1 K44H, P25685 | -0.182 ± 0.16 |
| DnaJ homolog subfamily B member 1 K46A, P25685 | -0.277 ± 0.35 |
| DnaJ homolog subfamily B member 1 P58E, P25685 | -0.149 ± 0.086 |
| DnaJ homolog subfamily B member 1 H32G, P25685 | -0.007 ± 0.072 |
| DnaJ homolog subfamily B member 1 G14H, P25685 | -0.133 ± 0.24 |
| DnaJ homolog subfamily B member 1 T8N, P25685 | -0.303 ± 0.18 |
| DnaJ homolog subfamily B member 1 V54Y, P25685 | -0.211 ± 0.27 |
| DnaJ homolog subfamily B member 1 G40S, P25685 | -0.195 ± 0.086 |
| DnaJ homolog subfamily B member 1 Y5R, P25685 | -0.52 ± 0.11 |
| DnaJ homolog subfamily B member 1 E38I, P25685 | -0.034 ± 0.15 |
| DnaJ homolog subfamily B member 1 I48Q, P25685 | -0.422 ± 0.12 |
| DnaJ homolog subfamily B member 1 H32C, P25685 | -0.106 ± 0.14 |
| DnaJ homolog subfamily B member 1 F64Q, P25685 | -0.344 ± 0.28 |
| DnaJ homolog subfamily B member 1 D34P, P25685 | -0.285 ± 0.094 |
| DnaJ homolog subfamily B member 1 S16C, P25685 | -0.185 ± 0.077 |
| DnaJ homolog subfamily B member 1 I20C, P25685 | -0.431 ± 0.079 |
| DnaJ homolog subfamily B member 1 T8L, P25685 | -0.101 ± 0.071 |
| DnaJ homolog subfamily B member 1 D34Y, P25685 | -0.135 ± 0.081 |
